Reference: doi:10.1101/2025.09.11.675134, “Biodistribution-Driven Discovery Identifies a Glycosidase-Cleavable Linker to Reprogram Radiotheranostics” (bioRxiv, 2025)
Like-named read-outs stand apart in the source and are kept apart here.

What was measured:
AR42J xenografts = test: PET/CT quantification of 86Y-labeled variants in AR42J xenograft mice; format: in vivo; settings: PET SUVmax, 24 h post-injection
Protocol: For studies involving three variants (DOTA -TATE, DOTA-MVK(ε)-TATE, and DOTA-β-Gal-TATE), AR42J cells (5 × 10^6 cells per mouse) were subcutaneously inoculated into the right shoulder of the mice. Tumors were allowed to grow for 3 weeks, reaching a volume of 100 –200 mm³ before being used in subsequent experiments. For biodistribution or PET imaging studies, mice bearing subcutaneous AR42J tumors were administered 1.4 – 1.8 MBq (1 μg) of 111In-labeled DOTA-TATE variants or 2.7 – 4.9 MBq (1 μg) of 86Y-labeled DOTA-TATE variants via […]
tail vein injection. […]
PET imaging to assess the uptake of three 86Y-labeled DOTA-TATE variants (2.7 – 4.9 MBq, 1 μg) in the kidney and tumor was performed at 1, 4, and 24 hours post-injection (n = 3 per cohort) in mice bearing AR42J tumors using the MRS*PET/CT 120 scanner (MR Solutions, Guildford, UK). PET/CT data acquisition was managed using Preclinical Scan software (version 4.2.4.0, MR Solutions). Mice were anesthetized with 2% isoflurane, and static PET sc ans were acquired over 10 min. CT scans were obtained for attenuation correction and anatomical co-registration.
PET data were reconstructed using three-dimensional ordered-subsets expectation maximization, and were subsequently normalized, decay - and dead-time–corrected prior to analysis. PET/CT images were analyzed using MIM software (version 7.2.7, MIM Software Inc., Beachwood, OH, USA), and the quantitative evaluation of the maximum standardized uptake (SUVmax) and the average standardized uptake values (SUVmean) in the kidney and tumor were also performed. […]

[1] = Ex vivo biodistribution of 86Y-labeled variants in AR42J tumor-bearing mice; settings: athymic nude, mouse, iv, 1 ug, total radioactivity, mean; for tissue uptake at 1 h: 1 h post-injection; for tissue uptake at 4 h: 4 h post-injection; for tissue uptake at 24 h: 24 h post-injection
Protocol: To independently confirm these observations, ex vivo biodistribution studies were conducted using the same ^86Y-labeled compounds at matched timepoints (Fig. S16; Table S3). […]
For studies involving three variants (DOTA -TATE, DOTA-MVK(ε)-TATE, and DOTA-β-Gal-TATE), AR42J cells (5 × 10^6 cells per mouse) were subcutaneously inoculated into the right shoulder of the mice. Tumors were allowed to grow for 3 weeks, reaching a volume of 100 –200 mm³ before being used in subsequent experiments. For biodistribution or PET imaging studies, mice bearing subcutaneous AR42J tumors were administered 1.4 – 1.8 MBq (1 μg) of 111In-labeled DOTA-TATE variants or 2.7 – 4.9 MBq (1 μg) of 86Y-labeled DOTA-TATE variants via tail vein injection. Biodistribution studies with 111In-labeled DOTA -TATE variants were performed 1 hour post -injection (n = 3 per cohort), while studies with 86Y-labeled DOTA-TATE variants were conducted at 1, 4, and 24 hours post -injection (n = 3 per cohort). Mice were euthanized by CO2 asphyxiation, and 10 tissues, including tumors, were collected. All samples were weighed and counted on a gamma counter (2480 Wizard 3, Perkin Elmer Inc., Waltham, MA, USA). Results are presented as percentage of injected activity per gram (%IA/g) and mean values ± standard deviations. […]

β-galactosidase = β-galactosidase 10 KU/mL in PBS (10 mM, pH 7.2), 37 °C; for Cleaved product 86Y-DOTA-NHMe, % of the total activity: mixed 1:1 (v/v), radio-TLC
Protocol: To further confirm β-galactosidase-specific cleavage, ^86Y-DOTA-β-Gal-TATE was incubated in vitro with β-galactosidase and analyzed by radio-TLC over time.
To analyze radioactive urine metabolites, ^86Y-DOTA-MVK(ε)-TATE or ^86Y-DOTA-β-Gal-TATE (13 – 15 MBq in 200 μL PBS, 4 μg) was intravenously injected into normal, non-tumor-bearing athymic nu/nu mice (n = 3). As reference controls, standard metabolites of ^86Y-DOTA-MVK(ε)-TATE (^86Y-DOTA-G-M-OH) and ^86Y-DOTA-β-Gal-TATE (^86Y-DOTA-NHMe) were also prepared and administered to normal athymic, non-tumor-bearing nu/nu mice. Urine samples were collected 1 hour post-injection, centrifuged at 10,000 rpm, and subsequently analyzed by radio-HPLC for each ^86Y-labeled DOTA-TATE variant. The radio-HPLC peaks were compared with those of the standard metabolites (^86Y-DOTA-G-M-OH or ^86Y-DOTA-NHMe). Radio-HPLC analysis was conducted under the same conditions as those used for analyzing the radiolabeled the DOTA-TATE variants, using an Agilent 1260 Infinity II system with a TSK-gel Octadecyl-4PW column and a gradient elution method. For in vitro enzyme-mediated cleavage, β-galactosidase was prepared in PBS (10 mM, pH 7.2) at 10 KU/mL. ^86Y-DOTA-β-Gal-TATE (13–15 MBq in 200 μL PBS) was mixed 1:1 (v/v) with β-galactosidase solution and incubated at 37 °C. Aliquots were taken at 1, 4, and 24 h, centrifuged at 10,000 rpm, and the supernatants were analyzed by radio-TLC. The 24 h sample was further examined by radio-HPLC to confirm metabolite identity.

[2] = blood, ex vivo, n = 3, read-out: Blood uptake
[3] = femur, ex vivo, n = 3, read-out: Femur uptake
[4] = heart, ex vivo, n = 3, read-out: Heart uptake
[5] = intestine, ex vivo, n = 3, read-out: Intestine uptake
[6] = ex vivo, n = 3, read-out: Tumor uptake
[7] = kidney, ex vivo, n = 3, read-out: Kidney uptake
[8] = liver, ex vivo, n = 3, read-out: Liver uptake
[9] = lung, ex vivo, n = 3, read-out: Lung uptake
[10] = muscle, ex vivo, n = 3, read-out: Muscle uptake
[11] = spleen, ex vivo, n = 3, read-out: Spleen uptake

For C[C@@H](O)[C@H](NC(=O)[C@@H]1CSSC[C@H](NC(=O)[C@@H](Cc2ccccc2)NC(=O)CCCC(=O)Nc2cc(COC(=O)N(C)CCNC(=O)CN3CCN(CC(=O)O)CCN(CC(=O)O)CCN(CC(=O)O)CC3)ccc2O[C@@H]2O[C@H](CO)[C@H](O)[C@H](O)[C@H]2O)C(=O)N[C@@H](Cc2ccc(O)cc2)C(=O)N[C@H](Cc2c[nH]c3ccccc23)C(=O)N[C@@H](CCCCN)C(=O)N[C@@H]([C@@H](C)O)C(=O)N1)C(=O)O [^86Y-DOTA-β-Gal-TATE, metal not drawn], the “T/K ratio higher than that of 86Y-DOTA-MVK(ε)-TATE” value (AR42J xenografts) was “approximately 2.7 fold”, the “T/K ratio higher than that of 86Y-DOTA-TATE” value (AR42J xenografts) was “over 10 fold” and the tissue uptake at 1 h ([1]; blood, i.v. 1 μg (2.7–4.9 MBq), ex vivo gamma counting, n = 3, read-out: Blood uptake) was 0.32 %ID/g. For the same compound, the tissue uptake at 4 h [1, 2] was 0.23 %ID/g, the tissue uptake at 24 h [1, 2] was 0.02 %ID/g and the tissue uptake at 1 h [1, 3] was 0.97 %ID/g. It also gave a tissue uptake at 4 h [1, 3] of 0.96 %ID/g, a tissue uptake at 24 h [1, 3] of 1.01 %ID/g and a tissue uptake at 1 h [1, 4] of 0.33 %ID/g. It also gave a tissue uptake at 4 h [1, 4] of 0.26 %ID/g, a tissue uptake at 24 h [1, 4] of 0.11 %ID/g and a tissue uptake at 1 h [1, 5] of 0.49 %ID/g. The tissue uptake at 4 h [1, 5] was 0.33 %ID/g, the tissue uptake at 24 h [1, 5] was 0.1 %ID/g and the tissue uptake at 1 h [1, 6] was 9.71 %ID/g. The tissue uptake at 4 h [1, 6] was 9.16 %ID/g, the tissue uptake at 24 h [1, 6] was 9.03 %ID/g and the tissue uptake at 1 h [1, 7] was 3.94 %ID/g. For the same compound, the tissue uptake at 4 h [1, 7] was 3.29 %ID/g, the tissue uptake at 24 h [1, 7] was 0.76 %ID/g and the tissue uptake at 1 h [1, 8] was 0.4 %ID/g. For the same compound, the tissue uptake at 4 h [1, 8] was 0.35 %ID/g, the tissue uptake at 24 h [1, 8] was 0.27 %ID/g and the tissue uptake at 1 h [1, 9] was 0.72 %ID/g. For the same compound, the tissue uptake at 4 h [1, 9] was 0.58 %ID/g, the tissue uptake at 24 h [1, 9] was 0.15 %ID/g and the tissue uptake at 1 h [1, 10] was 0.48 %ID/g. The tissue uptake at 4 h [1, 10] was 0.25 %ID/g, the tissue uptake at 24 h [1, 10] was 0.09 %ID/g and the tissue uptake at 1 h [1, 11] was 0.32 %ID/g. For the same compound, the tissue uptake at 4 h [1, 11] was 0.5 %ID/g, the tissue uptake at 24 h [1, 11] was 0.12 %ID/g and the “Compound converted to 86Y-DOTA-NHMe” value (β-galactosidase; 24 h sample, radio-HPLC (peak at 2.6 min)) was 90.7%. The “Cleaved product 86Y-DOTA-NHMe, % of the total activity” value (“Cleaved product 86Y-DOTA-NHMe, %” for short) (β-galactosidase; 1 h) was 24.6%, the “Cleaved product 86Y-DOTA-NHMe, %” value (β-galactosidase; 4 h) was 50.2% and the “Cleaved product 86Y-DOTA-NHMe, %” value (β-galactosidase; 24 h) was 88.8%.
